Results as given in patent publication US11578136B2, “Compositions and methods for treating cancer” (INNATE PHARMA, priority 2017, dated 2023).
Entries after “also recorded” stand apart in the source; their conditions may differ.

Assays:
[1] = biological target: T1, Human CD39-L4 (NTPDase5, ENTPD5) (Homo sapiens, UniProt O75356); test: ELISA titration on CD39-L4; assay type: binding; conditions: result in words
T1 sequence (O75356 25-428): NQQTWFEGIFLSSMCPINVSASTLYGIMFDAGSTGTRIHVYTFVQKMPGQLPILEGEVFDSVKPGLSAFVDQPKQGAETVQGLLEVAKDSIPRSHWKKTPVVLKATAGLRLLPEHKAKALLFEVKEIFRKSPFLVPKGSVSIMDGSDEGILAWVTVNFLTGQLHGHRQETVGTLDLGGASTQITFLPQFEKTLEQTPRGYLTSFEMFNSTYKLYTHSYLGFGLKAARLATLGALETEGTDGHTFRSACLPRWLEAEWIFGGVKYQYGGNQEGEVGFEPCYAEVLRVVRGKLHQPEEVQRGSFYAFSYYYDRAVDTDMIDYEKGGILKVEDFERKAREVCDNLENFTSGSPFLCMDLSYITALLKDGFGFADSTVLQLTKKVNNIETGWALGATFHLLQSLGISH
Method: Antibody I-394 was tested for binding to recombinant human CD39 isoforms (Rec-huCD39 isoforms) having amino acid sequences shown below were coated in 96-well plate in PBS 1× at 500 ng/ml or 1 μg/ml at 4° C. overnight. Wells were washed in TBS Tween 20, and further saturated 2H at RT in TBS Blocking buffer. Dose range concentration of primary antibody was incubated in TBS blocking buffer for 2 h at RT. Wells were washed in TBS Tween 20. […] Optical density was measured on Enspire™ at OD=450.

[2] = biological target: T2, soluble recombinant human CD39 protein (Homo sapiens, UniProt P49961); test: Inhibition of the enzymatic activity of soluble CD39 (Cell Titer Glo); assay type: biochemical
T2 construct: made in house; host or cells: CHO cells
T2 sequence (P49961 with tags, fused parts or gaps): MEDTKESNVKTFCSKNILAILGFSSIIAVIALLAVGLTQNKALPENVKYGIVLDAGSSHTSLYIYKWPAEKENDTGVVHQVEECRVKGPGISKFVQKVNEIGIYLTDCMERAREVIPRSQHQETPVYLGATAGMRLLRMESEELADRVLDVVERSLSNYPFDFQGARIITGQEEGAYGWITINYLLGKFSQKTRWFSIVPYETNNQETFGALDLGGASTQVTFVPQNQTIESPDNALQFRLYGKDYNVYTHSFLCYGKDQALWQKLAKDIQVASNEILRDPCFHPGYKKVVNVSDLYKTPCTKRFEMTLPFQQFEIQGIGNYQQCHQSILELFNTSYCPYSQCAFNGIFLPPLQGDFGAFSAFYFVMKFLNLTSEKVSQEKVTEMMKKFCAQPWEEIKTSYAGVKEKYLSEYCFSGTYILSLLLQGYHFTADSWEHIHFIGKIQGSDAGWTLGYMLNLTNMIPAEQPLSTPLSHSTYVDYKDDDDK
Method: The inhibition by antibodies of the enzymatic activity of soluble CD39 protein produced was evaluated using Cell Titer Glo™ (Promega, reference G7571) that allows assessment of ATP hydrolysis through use of a reagent that generates a luminescent signal proportional to the amount of ATP present. In this way, inhibition of the soluble-CD39-meidatd ATP hydrolysis can be assessed. Briefly, dose ranges of anti-CD39 antibodies from 100 μg/ml to 6×10^−3 μg/ml were incubated with 400 ng/ml of soluble recombinant human CD39 protein having the amino acid sequence described in the Methods section (SEQ ID NO: 45), for 1 h at 37° C. 20 μM ATP was added to the plates for 30 additional minutes at 37° C. before addition of CTG (Cell Titer Glo) reagent. Emitted light was quantified using an Enspire™ luminometer after a short incubation period of 5 min in the dark. Anti-CD39 antibody efficacy was determined by comparing emitted light in presence of antibody with ATP alone (maximal light emission) and ATP together with soluble CD39 protein (minimal light emission).

[3] = tested on: monocyte-derived DC (moDC); test: Activation of dendritic cells in presence of ATP (flow cytometry); assay type: cell-based, human; conditions: ATP at 0.125 mM, 0.25 mM or 0.5 mM; I-394 at 10 μg/ml
Method: While ATP has pro-inflammatory, CD39-mediated catabolism of ATP is believed to be able to impair dendritic cell (DC) activation, in turn altering a broader adaptive immune response against tumor antigen. In order to evaluate whether CD39 blockade using anti-CD39 antibodies could overcome CD39-mediated alteration of dendritic cell (DC) activation in the presence of ATP, we incubated monocyte-derived DC (moDC) with anti-CD39 antibodies in the presence of ATP.
Briefly, human monocytes were purified from human healthy blood and differentiated into MoDC in presence of GM-CSF and IL-4 during 6 days. […] In some cases, MoDC were preincubated during 1 hours in presence of CD39 inhibitor: […] (Tocris, 250 μM), CD73 inhibitor: APCP (Tocris 50 μM), anti-CD39 blocking antibody I-394 or BY40 (for BY40 see WO2009/095478), or anti-CD73 blocking antibodies. LPS (Invivogen, 10 ng/ml) was used as positive control. To assess resulting effect of ATP-mediated DC activation on CD4 T cells activation, ATP-activated DC were washed and then incubated with allogenic CD4 T cells (ratio 1 MoDC/4 T cells) for a mixed lymphocytes reaction (MLR) during 5 days. T cells activation and proliferation were analyzed through CD25 expression and Cell Trace Violet dilution by flow cytometry (FIG. 8).

- binding to CD39-L4 in ELISA [1]: not
- maximum inhibition achieved, soluble CD39 [2]: 74.9%
- relative potency of inhibition of soluble CD39 (FIG. 2B) ([2]; ranking among I-394, I-395, I-396): greatest potency
Substance: I-394: anti-CD39 antibody, VH SEQ ID NO: 6, VL SEQ ID NO: 7; human IgG1 Fc with L234A/L235E/G237A/A330S/P331S
- inhibition of the enzymatic activity of soluble CD39 protein ([2]; result in words, 400 ng/ml sCD39, 20 μM ATP): strong inhibition; also recorded: inhibits
- ATP-induced moDC activation as assessed by HLA-DR or CD83 expression [3]: permitted moDC activation
